# Publication PMC9949351, “Chromatin localization of nucleophosmin organizes ribosome biogenesis” (Molecular cell, 2022)
# B1: Fkbp41 (natural protein, S. pombe, UniProt Q10175 1-362, looked up)
# chain: MSKEETLYSVKVDQERVPLFDEDFYKGFRSELSVRFTMAALDPRAKSNDAVTVNVITRLEHPEEDGEESDEELFQEEKFTLCTLKKGSVYQQPIDIIFSPGEEVFFERVGGDIPVYLSGTCIITNIPEEEDSSDLENDFLYGADEFSSDEEEMDDISVTSSEEEEEENGARIEELNSDEEDAEQAEEEILEKPVPKDEVAEKHSKDKLKKEEKEKKTAVDVSDSVNGKKRKTEPAGEGEQTEKKSKSTKTYPKQVLEGNVTVQDKVKGDGPAAKRKKRVSMRYIGRLTNGKVFDKNITGKPFTFNLGLEEVIKGWDVGIVGMQVGGERTIHIPAAMAYGSKRLPGIPANSDLVFDVKLLAVN
# notes: Fkbp41, S. pombe, SPAC27F1.06c; cloned into a pETDuet vector behind 6xHis-SUMO and an HRV-3C site; also called nucleophosmin-like protein Fkbp41; SPAC27F1.06c; source: E. coli Rosetta (DE3), purified (Ni Sepharose, tag removed, Q ion exchange, at times SEC); not shown: 6xHis, N-terminal, cleaved; SUMO, N-terminal, cleaved
# Tests used:
# [1] = target: the molecule itself; test: mass photometry + SEC; purified Fkbp39 and Fkbp41, oligomeric state; SEC on Superdex 200 Increase 10/300 GL
# [2] = target: B1; test: pull-down; 'in vitro co-immunoprecipitation': 12 μg each of 6xHis-SUMO-Fkbp39 and Fkbp41, 45 min at 4 °C in 30 mM HEPES-Na pH 7.5-8, 150 mM NaCl, 20 mM imidazole; Ni Sepharose resin, imidazole elution, SDS-PAGE; conditions: both partners purified
binding result [2],Binder,stoichiometry N [1]
,"Fkbp39 (natural protein, S. pombe, UniProt O74191 1-361, looked up, Fkbp39, S. pombe, SPBC1347.02; cloned into a pETDuet vector behind 6xHis-SUMO and an HRV-3C site; also called nucleophosmin-like protein Fkbp39; SPBC1347.02; source: E. coli Rosetta, purified (Ni Sepharose, tag removed, SP ion exchange, at times SEC); not shown: 6xHis, N-terminal, cleaved; SUMO, N-terminal, cleaved) MSLPIAVYSLSVKGKDVPAVEESTDASIHLTMASIDAGEKSNKPTTLLVKVRPRIPVEDEDDEELDEQMQELLEESQREFVLCTLKPGSLYQQPLNLTITPGDEVFFSASGDATIHLSGNFLVDEEDEEEEESDEDYDLSPTEEDLVETVSGDEESEEESESEDNSASEEDELDSAPAKKAQVKKKRTKDESEQEEAASPKKNNTKKQKVEGTPVKEKKVAFAEKLEQGPTGPAAKKEKQQASSNAPSSPKTRTLKGGVVVTDVKTGSGASATNGKKVEMRYIGKLENGKVFDKNTKGKPFAFILGRGEVIRGWDVGVAGMQEGGERKITIPAPMAYGNQSIPGIPKNSTLVFEVKLVRVH",5
binds,"6xHis-SUMO-Fkbp39 (natural protein, S. pombe, UniProt O74191 1-361, looked up, Fkbp39, S. pombe, SPBC1347.02; pETDuet construct with 6xHis-SUMO and an HRV-3C site, tag not removed; source: E. coli Rosetta (Fkbp39 constructs), purified; used as 6xHis-SUMO-Fkbp39; not shown: 6xHis, N-terminal, kept; SUMO, N-terminal, kept) MSLPIAVYSLSVKGKDVPAVEESTDASIHLTMASIDAGEKSNKPTTLLVKVRPRIPVEDEDDEELDEQMQELLEESQREFVLCTLKPGSLYQQPLNLTITPGDEVFFSASGDATIHLSGNFLVDEEDEEEEESDEDYDLSPTEEDLVETVSGDEESEEESESEDNSASEEDELDSAPAKKAQVKKKRTKDESEQEEAASPKKNNTKKQKVEGTPVKEKKVAFAEKLEQGPTGPAAKKEKQQASSNAPSSPKTRTLKGGVVVTDVKTGSGASATNGKKVEMRYIGKLENGKVFDKNTKGKPFAFILGRGEVIRGWDVGVAGMQEGGERKITIPAPMAYGNQSIPGIPKNSTLVFEVKLVRVH",
,B1,2
